From the supplement of paper PMC7877785
± gives the uncertainty stated by the source.

Assay: self-splicing fitness, log relative to wild type (ln ratio); higher = more splicing; Tetrahymena group I intron in knt gene, E. coli kanamycin selection, DiMSum; sequences stand for … in CUCUCU…GGAGGGAAAAGUUAUCAGGCAUGCACCUGGUAGCUAGUCUUUAAACCAAUAGAUUGCAUCGGUUUAAAAGGCAAGACCGUCAAAUUGCGGGAAAGGGGUCAACAGCCGUUCAGUACCAAGUCUCAGGGGAAACUUUGAGAUGGCCUUGCAAAGGGUAUGGUAAUAAGCUGACGGACAUGGUCCUAACCACGCAGCCAAGUCCUAAGUCAACAGAUCUUCUGUUGAUAUGGAUGCAGUUCACAGACUAAAUGUCGGUCGGGGAAGAUGUAUUCUUCUCAUAAGAUAUAGUCGGACCUCUCCUUAAUGGGAGCUAGCGGAUGAAGUGAUGCAACACUGGAGCCGCUGGGAACUAAUUUGUAUGCGAAAGUAUAUUGAUUAGUUUUGGAGUACUCGUGGUCG
Procedure, shortened: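 Six replicate transformations of E. coli BL21(DE3) with a pET-22b(+) library were grown overnight at 37°C or 30°C. The library randomised all eight P1ex-region intron nucleotides, the intron lying in the knt kanamycin-resistance gene, and plates were LB agar with or without 25 μg/mL kanamycin plus 100 μg/mL carbenicillin, 50 μM IPTG and 0.2% rhamnose. Pooled colonies were amplicon-sequenced on an Illumina HiSeq 2500, and fitness is the DiMSum error-weighted combination of wild-type-normalised replicate fold changes, kanamycin versus none.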

Sequence	self-splicing fitness (ln) (30 °C)	self-splicing fitness (ln) (37 °C)
GGAGAGCAAUAUUACGACGC	-0.0524 ± 0.081	-0.0426 ± 0.092
CGGGAGCAAUAUUACGACCU	-0.87 ± 0.14	-0.864 ± 0.18
UUAAAGCAAUAUUACGUCGA	0.349 ± 0.082	0.262 ± 0.095
AUCUAGCAAUAUUACGCUCC	-0.7 ± 0.18	-0.736 ± 0.25
UCCUAGCAAUAUUACGGGUA	-0.468 ± 0.088	-0.134 ± 0.12
CCUAAGCAAUAUUACGAUCU	-3.39 ± 0.35	-3.07 ± 0.28
AUAUAGCAAUAUUACGAGUA	-2.18 ± 0.2	-1.04 ± 0.16
GCUCAGCAAUAUUACGUGUA	-0.241 ± 0.058	-0.00875 ± 0.067
AGGAAGCAAUAUUACGGUUC	-2.78 ± 0.21	-2.24 ± 0.2
AGUAAGCAAUAUUACGGCAC	-2.04 ± 0.27	-0.545 ± 0.2
GCAGAGCAAUAUUACGAAGG	-4.31 ± 0.46	-1.42 ± 0.26
UAGCAGCAAUAUUACGCUCG	-1 ± 0.12	0.142 ± 0.14
GCACAGCAAUAUUACGGGAC	-1.04 ± 0.068	-1.35 ± 0.098
UUAGAGCAAUAUUACGGGAG	-2.32 ± 0.15	-1.32 ± 0.18
CUGUAGCAAUAUUACGUAUC	-4.3 ± 0.47	-1.57 ± 0.38
CCCAAGCAAUAUUACGUAUG	-4.01 ± 0.15	-1.47 ± 0.11
CCAAAGCAAUAUUACGAAAA	-1.93 ± 0.17	-2.85 ± 0.32
UUAUAGCAAUAUUACGCAUA	-2.43 ± 0.29	-0.953 ± 0.18
UGGAAGCAAUAUUACGUAUA	-2.2 ± 0.26	-1.27 ± 0.2
CAUAAGCAAUAUUACGAAGG	-1.56 ± 0.11	-1.55 ± 0.15
UCGUAGCAAUAUUACGAUCC	-2.46 ± 0.35	–
GCACAGCAAUAUUACGAGAU	-1.99 ± 0.088	-0.678 ± 0.081
CUUUAGCAAUAUUACGUUUA	-3.03 ± 0.24	-1.64 ± 0.17
CAUGAGCAAUAUUACGGUUU	-3.52 ± 0.2	-3.01 ± 0.24
GUCAAGCAAUAUUACGUACC	-0.597 ± 0.3	-1.73 ± 0.43
CACUAGCAAUAUUACGCUGU	-3.17 ± 0.14	-3.3 ± 0.23

Sequence	self-splicing fitness (ln) (30 °C)	self-splicing fitness (ln) (37 °C)
CUCAAGCAAUAUUACGCACU	-3.2 ± 0.24	-2.08 ± 0.28
CAUUAGCAAUAUUACGGCCU	-3.52 ± 0.18	-2.21 ± 0.21
CUACAGCAAUAUUACGUAGA	-4.4 ± 0.21	-2.56 ± 0.14
CAAGAGCAAUAUUACGGUGU	-3.52 ± 0.15	-2.08 ± 0.17
CAACAGCAAUAUUACGCUGU	-2.11 ± 0.2	-2.65 ± 0.26
CAACAGCAAUAUUACGUCUA	-1.06 ± 0.053	-0.786 ± 0.055
UUUAAGCAAUAUUACGUUUC	-3.96 ± 0.35	-3.19 ± 0.4
GCCGAGCAAUAUUACGCAAA	–	-1.05 ± 0.34
UAUAAGCAAUAUUACGGGGA	-1.81 ± 0.19	-1.91 ± 0.23
UAUCAGCAAUAUUACGCUCA	-0.0488 ± 0.092	0.0773 ± 0.11
GUUCAGCAAUAUUACGGUCG	-0.812 ± 0.099	-0.788 ± 0.15
UGCUAGCAAUAUUACGAAUA	-1.27 ± 0.13	-1.16 ± 0.12
CGUAAGCAAUAUUACGUACG	-3.57 ± 0.25	-1.59 ± 0.23
GACCAGCAAUAUUACGUGAA	-0.0938 ± 0.063	0.524 ± 0.089
GUUUAGCAAUAUUACGCGGA	-1.9 ± 0.24	-1.82 ± 0.37
GUGAAGCAAUAUUACGCGAC	-0.927 ± 0.21	-0.922 ± 0.26
UUCAAGCAAUAUUACGAUCU	-1.59 ± 0.092	-0.996 ± 0.089
AUCGAGCAAUAUUACGCCAC	–	-2.54 ± 0.45
GGGCAGCAAUAUUACGCAUG	-1.36 ± 0.1	-0.482 ± 0.12
UUAGAGCAAUAUUACGAUGC	-2.04 ± 0.21	-2.57 ± 0.41
GCGUAGCAAUAUUACGUCCG	-2.52 ± 0.26	-1.48 ± 0.21
UCGGAGCAAUAUUACGCUAG	-1.87 ± 0.21	-2.38 ± 0.27
AACUAGCAAUAUUACGCUUA	-0.632 ± 0.087	-0.749 ± 0.11
UCACAGCAAUAUUACGUGCC	-1.42 ± 0.11	0.00553 ± 0.12
GUACAGCAAUAUUACGCUGA	-2.47 ± 0.12	-1.33 ± 0.1
UUAAAGCAAUAUUACGAGGG	-2.1 ± 0.17	-1.12 ± 0.26

Sequence	self-splicing fitness (ln) (30 °C)	self-splicing fitness (ln) (37 °C)
UAGAAGCAAUAUUACGGUAU	-3.08 ± 0.2	-2.55 ± 0.17
GCCGAGCAAUAUUACGUCCG	-3.69 ± 0.28	-2.87 ± 0.29
UGUUAGCAAUAUUACGUGUU	-3.3 ± 0.29	-3.27 ± 0.47
GAAUAGCAAUAUUACGCGAU	-3.41 ± 0.2	-2.5 ± 0.19
UCUGAGCAAUAUUACGAAAU	-4.41 ± 0.46	-2.24 ± 0.4
AAAAAGCAAUAUUACGUUGU	-3.71 ± 0.15	-2.01 ± 0.14
CAAUAGCAAUAUUACGCCAG	-1.21 ± 0.12	-0.652 ± 0.15
CUCCAGCAAUAUUACGUGAU	-2.1 ± 0.078	-1.59 ± 0.1
CUUCAGCAAUAUUACGUAAC	-2.65 ± 0.32	-2.27 ± 0.45
AGGGAGCAAUAUUACGUUAA	-3.09 ± 0.48	-2.66 ± 0.41
AGCGAGCAAUAUUACGCACG	-3.64 ± 0.45	–
AUGGAGCAAUAUUACGGCCC	-1.13 ± 0.24	-1.43 ± 0.31
CCGGAGCAAUAUUACGAUAU	–	-2.37 ± 0.42
AGCUAGCAAUAUUACGGUCC	-0.52 ± 0.1	-0.0902 ± 0.14
CAGCAGCAAUAUUACGCUAG	-2.8 ± 0.16	-2.1 ± 0.21
GAUCAGCAAUAUUACGAGUG	-1.2 ± 0.06	-1.21 ± 0.079
GCUUAGCAAUAUUACGCUCG	-0.579 ± 0.1	-0.0325 ± 0.16
CCGUAGCAAUAUUACGCUUA	-3.52 ± 0.45	-1.7 ± 0.35
AGCGAGCAAUAUUACGUAAU	-3.21 ± 0.14	-2.04 ± 0.14
CUAGAGCAAUAUUACGGAGA	-2.51 ± 0.26	-2.51 ± 0.48
UAGCAGCAAUAUUACGUGAC	-3.19 ± 0.18	-3.45 ± 0.28
UAGCAGCAAUAUUACGCCAA	-1.78 ± 0.12	-0.98 ± 0.1
GGCAAGCAAUAUUACGGUUU	-0.376 ± 0.052	0.232 ± 0.069
GUAGAGCAAUAUUACGGGGG	-2.82 ± 0.26	-2.22 ± 0.3
